Assay results reported in patent publication US12030916 (AUCTUS BIOLOGICS, dated 2024).

Target: T1, RPtag small tight peptide (Nd2,P5A,E18A) with a C-terminal GGC sequence (C-terminal Cys reacted with maleimide-activated plate (immobilised))
T1 construct: also called RPtag small peptide; bait peptide
T1 peptide: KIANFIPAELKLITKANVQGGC
Test: capture ELISA, peptide immobilised on maleimide plate
Experimental: White Pierce™ Maleimide Activated Plates were washed 4× with 200 μL 50 mM phosphate pH 7.4, 150 mM NaCl, and reacted with 100 μL of RPtag small peptide that binds with high affinity to RPtag large. Specifically, RPtag small tight peptide (Nd2,P5A,E18A; […]; SEQ ID NO:5) with a C-terminal GGC sequence ([…] (SEQ ID NO:5)+GGC) dissolved in 50 mM phosphate pH 7.4, 150 mM NaCl, 10 mM EDTA overnight at room temperature as bait. Plates were then washed 4× in 50 mM phosphate pH 7.4, 150 mM NaCl, and blocked for 1 hour at room temperature with 10 mM L-Cys in the same buffer, washed 4× as before, and blocked for 1 hour at room temperature with 50 mM phosphate pH 7.4, 150 mM NaCl, 1% BSA, 0.05% Tween20 (blocking buffer).
Plates were washed 4× as before, serum samples were diluted 1:100 in blocking buffer, and then serum was incubated with the baited plates for 2 hours at room temperature. […]
To test for intact N-termini, wells were then washed 4× as before, and incubated with a 1:10,000 dilution of HRP-conjugated mouse anti-FLAG antibody (M2 clone, 1 mg/mL stock) from Sigma-Aldrich for 1 hour at room temperature. Samples were then washed 4× as before, and assayed using SuperSignal™ ELISA Femto Substrate measured using a Molecular Devices SpectraMax i3 plate reader in luminescence mode. […]

binding result: binds
B1: RPtag large-B12 construct (RPtag large with 3xFLAG tag, proline and Cys residue, B12-maleimide conjugated, 8xHis tag removed by TEV protease) (designed binder)
chain: KTIGLVISTLNNPFFVTLKNGAEEKAKELGYKIIVEDSQNDSSKELSNVEDLIQQKVDVLLINPVDSDAVVTAIKEANSKNIPVITIDRSANGGDVVSHIASDNVKGGEMAAEFIAKALKGKGNVVELEGIPGASAARDRGKGFDEAIAKYPDIKIVAKQAADFDRSKGLSVMENILQAQPKIDAVFAQNDEMALGAIKAIEAANRQGIIVVGFDGTEDALKAIKEGKMAATIAQQPALMGSLGVEMADKYLK
modifications: B12-maleimide covalently attached at the added Cys residue (47% labeling efficiency; the preparation is a mixture of free RPtag large and B12-RPtag large conjugate); position of the Cys not stated
notes: Construct expressed with N-terminal 8xHis tag and TEV site, both removed by TEV protease before use; In the assay it stood either in mouse serum after oral gavage or as a standard of known concentration; Formulated with 1 M D-ribose for dosing; also called B12-RPtag large conjugate; B12-RPtag conjugate; not shown: N-terminal leader left after TEV cleavage: 3xFLAG tag, a proline after it and a Cys …
